{
  "source": "paper PMC4303685",
  "key": {"complement C3c (human) [1]": {"molecular_target": "complement C3c (human) (UniProt P01024)", "test": "AUC; sedimentation velocity, c(s) analysis; PBS in 2H2O (137 mM NaCl, pH 7.4); monomer to dimer, proportions by peak integration"}, "complement C3c (human) [2]": {"molecular_target": "complement C3c (human) (UniProt P01024)", "test": "AUC; sedimentation velocity, c(s) analysis (SEDFIT), 50,000 rpm, 20 °C; 10 mM Hepes, 50 mM NaCl, pH 7.4; monomer to dimer, KD estimated"}, "complement C3c (human) [3]": {"molecular_target": "complement C3c (human) (UniProt P01024)", "test": "AUC; sedimentation velocity, c(s) analysis (SEDFIT), 50,000 rpm, 20 °C; 10 mM Hepes, 137 mM NaCl, pH 7.4; monomer to dimer, KD estimated from peak integration"}, "complement C3c (human) [4]": {"molecular_target": "complement C3c (human) (UniProt P01024)", "test": "SPR; Biacore X100, C3c amine-coupled to CM5 chip, C3d as analyte, 25 °C, 30 μl/min, steady state analysis; 10 mM Hepes, 50 mM NaCl, pH 7.4"}, "[5]": {"molecular_target": "recombinant wild-type C3d (E1032) (human) (UniProt P01024)", "test": "AUC; sedimentation velocity, c(s) analysis; PBS in 2H2O (137 mM NaCl, pH 7.4); monomer to dimer, proportions by peak integration"}, "[6]": {"molecular_target": "recombinant wild-type C3d (E1032) (human) (UniProt P01024)", "test": "AUC; sedimentation velocity, c(s) analysis (SEDFIT), 50,000 rpm, 20 °C; 10 mM Hepes, 50 mM NaCl, pH 7.4; monomer to dimer, KD estimated"}, "[7]": {"molecular_target": "recombinant wild-type C3d (E1032) (human) (UniProt P01024)", "test": "AUC; sedimentation velocity, c(s) analysis (SEDFIT), 50,000 rpm, 20 °C; 10 mM Hepes, 137 mM NaCl, pH 7.4; monomer to dimer, KD estimated from peak integration"}},
  "data": [
    {"substance": "complement C3c (from UniProt P01024 23-667; P01024 749-954; P01024 1321-1663) (domain or fragment)", "values": [
      {"measurement": "dimer proportion", "setting": "complement C3c (human) [1]", "result": 7, "unit": "%"},
      {"measurement": "stoichiometry N", "setting": "complement C3c (human) [1]", "result": 2},
      {"measurement": "Kd", "setting": "complement C3c (human) [2]", "result": 50, "unit": "µM"},
      {"measurement": "stoichiometry N", "setting": "complement C3c (human) [2]", "result": 2},
      {"measurement": "Kd", "setting": "complement C3c (human) [3]", "result": 60, "unit": "µM"},
      {"measurement": "dimer, percent of the total", "setting": "complement C3c (human) [3]", "result": 6, "unit": "%"},
      {"measurement": "stoichiometry N", "setting": "complement C3c (human) [3]", "result": 2}
    ]},
    {"substance": "mutant C3d (A1032), C3d E1032A (from UniProt P01024 996-1287) (domain or fragment)", "values": [
      {"measurement": "fold less binding than wild-type C3d", "setting": "complement C3c (human) [4]", "result": 10, "unit": "fold"}
    ]},
    {"substance": "recombinant wild-type C3d (E1032) (from UniProt P01024 996-1287) (domain or fragment)", "values": [
      {"measurement": "dimer proportion", "setting": "[5]", "result": 12, "unit": "%"},
      {"measurement": "stoichiometry N", "setting": "[5]", "result": 2},
      {"measurement": "Kd", "setting": "[6]", "result": 25, "unit": "µM"},
      {"measurement": "stoichiometry N", "setting": "[6]", "result": 2},
      {"measurement": "Kd", "setting": "complement C3c (human) [4]", "result": 51, "unit": "µM"},
      {"measurement": "dimer, percent of the total", "setting": "[7]", "result": 10, "unit": "%"},
      {"measurement": "stoichiometry N", "setting": "[7]", "result": 2}
    ]}
  ]
}
